{"source": "paper PMC5989791", "biological_target": "amatuximab, chimerized monoclonal IgG1 antibody targeting mesothelin (unlabelled) (human)", "experiment": "ELISA"}
{"substance": "CA125 tumor-shed antigen, soluble (sCA125), patient-derived (from UniProt Q8WXI7 1-14507) (natural protein)", "values": [{"measurement": "percent decrease of CD16a binding to amatuximab", "value": 50, "unit": "%"}, {"measurement": "percent reduction of amatuximab binding to CD32a", "value": 29, "unit": "%"}]}
